{"source": "paper PMC10966104", "key": {"[1]": {"target": "baseplate hub gp15 of cyanophage A-1(L) (cyanophage A-1(L))", "test": "cryo-EM structure; intact A-1(L) particles purified from infected Anabaena sp. PCC 7120, in SM buffer (50 mM Tris-HCl pH 7.5, 10 mM MgSO4, 100 mM NaCl); local reconstructions of portal, gp5-neck fiber, gp7-terminator, sheath-tube, baseplate and tail fibers"}, "[2]": {"target": "baseplate wedge protein gp32 of cyanophage A-1(L) (cyanophage A-1(L))", "test": "cryo-EM structure; intact A-1(L) particles purified from infected Anabaena sp. PCC 7120, in SM buffer (50 mM Tris-HCl pH 7.5, 10 mM MgSO4, 100 mM NaCl); local reconstructions of portal, gp5-neck fiber, gp7-terminator, sheath-tube, baseplate and tail fibers"}, "[3]": {"target": "central spike gp25 of cyanophage A-1(L) (cyanophage A-1(L))", "test": "cryo-EM structure; intact A-1(L) particles purified from infected Anabaena sp. PCC 7120, in SM buffer (50 mM Tris-HCl pH 7.5, 10 mM MgSO4, 100 mM NaCl); local reconstructions of portal, gp5-neck fiber, gp7-terminator, sheath-tube, baseplate and tail fibers"}, "[4]": {"target": "long tail fiber gp34 of cyanophage A-1(L) (cyanophage A-1(L))", "test": "cryo-EM structure; intact A-1(L) particles purified from infected Anabaena sp. PCC 7120, in SM buffer (50 mM Tris-HCl pH 7.5, 10 mM MgSO4, 100 mM NaCl); local reconstructions of portal, gp5-neck fiber, gp7-terminator, sheath-tube, baseplate and tail fibers"}, "[5]": {"target": "neck fiber protein gp82 of cyanophage A-1(L), in the virion (cyanophage A-1(L))", "test": "cryo-EM structure; intact A-1(L) particles purified from infected Anabaena sp. PCC 7120, in SM buffer (50 mM Tris-HCl pH 7.5, 10 mM MgSO4, 100 mM NaCl); local reconstructions of portal, gp5-neck fiber, gp7-terminator, sheath-tube, baseplate and tail fibers"}, "[6]": {"target": "neck protein gp5 of cyanophage A-1(L) (cyanophage A-1(L))", "test": "cryo-EM structure; intact A-1(L) particles purified from infected Anabaena sp. PCC 7120, in SM buffer (50 mM Tris-HCl pH 7.5, 10 mM MgSO4, 100 mM NaCl); local reconstructions of portal, gp5-neck fiber, gp7-terminator, sheath-tube, baseplate and tail fibers"}, "[7]": {"target": "neck protein gp7 of cyanophage A-1(L) (cyanophage A-1(L))", "test": "cryo-EM structure; intact A-1(L) particles purified from infected Anabaena sp. PCC 7120, in SM buffer (50 mM Tris-HCl pH 7.5, 10 mM MgSO4, 100 mM NaCl); local reconstructions of portal, gp5-neck fiber, gp7-terminator, sheath-tube, baseplate and tail fibers"}, "[8]": {"target": "portal protein gp2 of cyanophage A-1(L) (cyanophage A-1(L))", "test": "cryo-EM structure; intact A-1(L) particles purified from infected Anabaena sp. PCC 7120, in SM buffer (50 mM Tris-HCl pH 7.5, 10 mM MgSO4, 100 mM NaCl); local reconstructions of portal, gp5-neck fiber, gp7-terminator, sheath-tube, baseplate and tail fibers"}, "[9]": {"target": "recombinant gp80-His6 of the neck fiber (cyanophage A-1(L))", "test": "SEC-MALS; recombinant neck fiber gp82-gp81-gp80-His6, 1 mg/mL, 100 uL, Superdex 200 Increase 10/300 GL in binding buffer"}, "[10]": {"target": "recombinant gp82 of the neck fiber gp82-gp81-gp80-His6 (cyanophage A-1(L))", "test": "SEC-MALS; recombinant neck fiber gp82-gp81-gp80-His6, 1 mg/mL, 100 uL, Superdex 200 Increase 10/300 GL in binding buffer"}, "[11]": {"target": "sheath initiator gp30 of cyanophage A-1(L) (cyanophage A-1(L))", "test": "cryo-EM structure; intact A-1(L) particles purified from infected Anabaena sp. PCC 7120, in SM buffer (50 mM Tris-HCl pH 7.5, 10 mM MgSO4, 100 mM NaCl); local reconstructions of portal, gp5-neck fiber, gp7-terminator, sheath-tube, baseplate and tail fibers"}, "[12]": {"target": "short tail fiber gp33 of cyanophage A-1(L) (cyanophage A-1(L))", "test": "cryo-EM structure; intact A-1(L) particles purified from infected Anabaena sp. PCC 7120, in SM buffer (50 mM Tris-HCl pH 7.5, 10 mM MgSO4, 100 mM NaCl); local reconstructions of portal, gp5-neck fiber, gp7-terminator, sheath-tube, baseplate and tail fibers"}, "[13]": {"target": "tail sheath protein gp9 of cyanophage A-1(L) (cyanophage A-1(L))", "test": "cryo-EM structure; intact A-1(L) particles purified from infected Anabaena sp. PCC 7120, in SM buffer (50 mM Tris-HCl pH 7.5, 10 mM MgSO4, 100 mM NaCl); local reconstructions of portal, gp5-neck fiber, gp7-terminator, sheath-tube, baseplate and tail fibers"}, "[14]": {"target": "tail terminator gp8 of cyanophage A-1(L) (cyanophage A-1(L))", "test": "cryo-EM structure; intact A-1(L) particles purified from infected Anabaena sp. PCC 7120, in SM buffer (50 mM Tris-HCl pH 7.5, 10 mM MgSO4, 100 mM NaCl); local reconstructions of portal, gp5-neck fiber, gp7-terminator, sheath-tube, baseplate and tail fibers"}, "[15]": {"target": "tail tube protein gp10 of cyanophage A-1(L) (cyanophage A-1(L))", "test": "cryo-EM structure; intact A-1(L) particles purified from infected Anabaena sp. PCC 7120, in SM buffer (50 mM Tris-HCl pH 7.5, 10 mM MgSO4, 100 mM NaCl); local reconstructions of portal, gp5-neck fiber, gp7-terminator, sheath-tube, baseplate and tail fibers"}, "[16]": {"target": "tape measure protein gp13 of cyanophage A-1(L) (cyanophage A-1(L))", "test": "cryo-EM structure; intact A-1(L) particles purified from infected Anabaena sp. PCC 7120, in SM buffer (50 mM Tris-HCl pH 7.5, 10 mM MgSO4, 100 mM NaCl); local reconstructions of portal, gp5-neck fiber, gp7-terminator, sheath-tube, baseplate and tail fibers"}, "[17]": {"target": "tube initiator gp18 of cyanophage A-1(L) (cyanophage A-1(L))", "test": "cryo-EM structure; intact A-1(L) particles purified from infected Anabaena sp. PCC 7120, in SM buffer (50 mM Tris-HCl pH 7.5, 10 mM MgSO4, 100 mM NaCl); local reconstructions of portal, gp5-neck fiber, gp7-terminator, sheath-tube, baseplate and tail fibers"}}}
{"substance": "baseplate hub gp15 of cyanophage A-1(L) (natural protein)", "values": [{"measurement": "stoichiometry N", "setting": "[1]", "value": 3, "unit": "subunits"}]}
{"substance": "baseplate wedge protein gp31 of cyanophage A-1(L) (natural protein)", "values": [{"measurement": "stoichiometry N (gp31 per gp32)", "setting": "[2]", "value": 2}]}
{"substance": "central spike gp25 of cyanophage A-1(L) (natural protein)", "values": [{"measurement": "stoichiometry N", "setting": "[3]", "value": 3, "unit": "subunits"}]}
{"substance": "long tail fiber gp34 of cyanophage A-1(L) (natural protein)", "values": [{"measurement": "stoichiometry N", "setting": "[4]", "value": 3, "unit": "subunits"}]}
{"substance": "neck fiber protein gp82 of cyanophage A-1(L), in the virion (natural protein)", "values": [{"measurement": "stoichiometry N", "setting": "[5]", "value": 3, "unit": "subunits"}]}
{"substance": "neck protein gp5 of cyanophage A-1(L) (natural protein)", "values": [{"measurement": "stoichiometry N", "setting": "[6]", "value": 15, "unit": "subunits"}]}
{"substance": "neck protein gp7 of cyanophage A-1(L) (natural protein)", "values": [{"measurement": "stoichiometry N", "setting": "[7]", "value": 6, "unit": "subunits"}]}
{"substance": "portal protein gp2 of cyanophage A-1(L) (natural protein)", "values": [{"measurement": "stoichiometry N", "setting": "[8]", "value": 12, "unit": "subunits"}]}
{"substance": "recombinant gp81 of the neck fiber (natural protein)", "values": [{"measurement": "stoichiometry N (gp81 trimers per gp80 trimer)", "setting": "[9]", "value": 14}, {"measurement": "stoichiometry N (gp81 trimers per gp82 trimer)", "setting": "[10]", "value": 14}]}
{"substance": "sheath initiator gp30 of cyanophage A-1(L) (natural protein)", "values": [{"measurement": "stoichiometry N", "setting": "[11]", "value": 6, "unit": "subunits"}]}
{"substance": "short tail fiber gp33 of cyanophage A-1(L) (natural protein)", "values": [{"measurement": "stoichiometry N", "setting": "[12]", "value": 3, "unit": "subunits"}]}
{"substance": "tail sheath protein gp9 of cyanophage A-1(L) (natural protein)", "values": [{"measurement": "stoichiometry N (subunits in a ring)", "setting": "[13]", "value": 6}]}
{"substance": "tail terminator gp8 of cyanophage A-1(L) (natural protein)", "values": [{"measurement": "stoichiometry N", "setting": "[14]", "value": 6, "unit": "subunits"}]}
{"substance": "tail tube protein gp10 of cyanophage A-1(L) (natural protein)", "values": [{"measurement": "stoichiometry N (subunits in a ring)", "setting": "[15]", "value": 6}]}
{"substance": "tape measure protein gp13 of cyanophage A-1(L) (natural protein)", "values": [{"measurement": "stoichiometry N", "setting": "[16]", "value": 6}]}
{"substance": "tube initiator gp18 of cyanophage A-1(L) (natural protein)", "values": [{"measurement": "stoichiometry N", "setting": "[17]", "value": 6, "unit": "subunits"}]}
